In patent US20250352624A1, “SUPEROXIDE DISMUTASE AND USES THEREOF FOR PREVENTING OR TREATING DRY EYE SYNDROME” (GENOFOCUS, INC., priority 2021, published 2025):

What was measured:
Format in all cases: in vivo
[1] = system: experimental dry eye (EDE)-induced C57BL/6 mouse model; test: CD4+IFN-γ+ T cells by flow cytometry
Protocol: (§1) To induce experimental dry eye, 7- to 8-week-old C57BL/6 mice (purchased from Damool Science) were injected subcutaneously with scopolamine hydrochloride at 0.5 mg/0.2 ml three times a day under exposure to a ventilating device for 18 hours a day. The humidity was maintained at 30%, and the temperature was maintained at 25° C. The C57BL/6 mice were classified into 7 groups, depending on concentrations of the oral drug to be administered, as shown in Table 6.
(§2) After inducing experimental dry eye in the experimental mice, the drugs prepared in Example 3 were orally administered at 2 μL per dose once a day to the treatment groups (administered at 13:30 every day). In both eyes of all mice, at baseline, day 5, and day 10, tear volume and tear film break-up time were measured and corneal fluorescent staining score was examined. The mice were then sacrificed and tissue analysis was performed. Each group consisted of 6 animals.
(§3) The cornea, conjunctiva, and lacrimal gland were excised, sectioned with scissors, and then shaken with 0.5 mg/mL of collagenase type D (manufactured by Roche Applied Science, Indianapolis, IN, USA) at 37° C. for 60 minutes. The tissue was ground and then allowed to pass through a cell strainer, followed by centrifugation. The number of CD4+IFN-γ+T cells was calculated by performing flow cytometry with fluorescein-conjugated anti-CD4 antibody and phycoerythrin-conjugated anti-IFN-γ antibody, and the number of DCF-DA cells was calculated using the CM-H2DCFDA kit (manufactured by Thermo Fisher Scientific, Waltham, MA, USA).

[2] = system: experimental dry eye (EDE)-induced C57BL/6 mouse model; test: Malondialdehyde (MDA) by ELISA in cornea, conjunctiva and lacrimal gland; conditions: for MDA efficacy as compared with 0.05% CsA: 10 mg/kg oral
Protocol: as §1, §2
The corneas, conjunctivas, and lacrimal glands were excised from both eyes (6 eyes) of 3 animals in each group required for tissue analysis. The samples were homogenized in PBS, and then the lysates were centrifuged at 10000×g for 10 minutes at 4° C. The supernatant was taken and the total amount of protein was measured using the Bradford assay. MDA was detected using an ELISA (Enzyme-linked immunosorbent assay) kit (manufactured by Quantikine, R&D Systems, Minneapolis, MN) containing capture and detection antibodies according to the manufacturer's manual. Using ELISA, MDA levels in the cornea, conjunctiva, and lacrimal gland were measured and recorded, respectively.

[3] = system: experimental dry eye (EDE)-induced C57BL/6 mouse model; test: Tear volume (phenol red thread) in experimental dry eye mice
Protocol: as §1, §2
Tear volume was determined as follows. A phenol red-impregnated cotton thread was brought into contact for 20 seconds with the conjunctival sac on the lateral canthus side of each mouse, and the length was measured using SMZ microscopy. Then, the measured length was converted into a volume by substituting it into a given formula (see Villareal A L, Farley W, Pflugfelder S C. Effect of topical ophthalmic epinastine and olopatadine on tear volume in mice. Eye Contact Lens. 2006; 32:272-6).

[4] = system: experimental dry eye (EDE)-induced C57BL/6 mouse model; test: Inflammatory cytokines by Luminex multiplex immunobead assay
Protocol: as §1
(§4) In both eyes of all mice, at baseline, day 5, and day 10, tear volume and tear film break-up time were measured and corneal fluorescent staining score was examined. The mice were then sacrificed and tissue analysis was performed. Each group consisted of 6 animals.
Conjunctival tissue was excised and collected from 6 eyes of 3 animals in each group, and then immersed in lysis buffer containing protease inhibitors for 30 minutes. Subsequently, the resultant was centrifuged and stored −80° C. Then, the concentrations of IFN-γ, IL-1Bβand TNF-α in the cornea and conjunctiva were analyzed using the Luminex multiplex immunobead assay.

[5] = system: experimental dry eye (EDE)-induced C57BL/6 mouse model; test: Goblet cells in conjunctiva (PAS staining histology)
Protocol: as §1, §2
The eye and accessory tissues were excised from one eye of one animal in each group, fixed in 4% paraformaldehyde, embedded in paraffin, and then PAS staining was performed on two cross-sectional pieces of the tissue. In each piece, the density of goblet cells in the conjunctiva was calculated using a microscope and image analysis software.

[6] = system: experimental dry eye (EDE)-induced C57BL/6 mouse model; test: Apoptosis (TUNEL immunofluorescent staining); conditions: for number of necrotic cells in the cornea: TUNEL staining
Protocol: as §1, §4
The eye and accessory tissues were excised from one eye of one animal in each group, fixed in 4% paraformaldehyde, embedded in paraffin, and then TUNEL staining was performed on two cross-sectional pieces of the tissue. […]

[7] = system: experimental dry eye (EDE)-induced C57BL/6 mouse model; test: Reactive oxygen species (DCF-DA) by flow cytometry
Protocol: as §1, §2, §3

[8] = conjunctiva, 2.5 mg/kg oral once a day
[9] = conjunctiva, 5 mg/kg oral once a day
[10] = conjunctiva, 10 mg/kg oral once a day
[11] = cornea and conjunctiva, CsA and oral SodA2 groups
[12] = cornea, 2.5 mg/kg oral once a day
[13] = cornea, 5 mg/kg oral once a day
[14] = cornea, 10 mg/kg oral once a day
[15] = lacrimal gland, 2.5 mg/kg oral once a day
[16] = lacrimal gland, 5 mg/kg oral once a day
[17] = lacrimal gland, 10 mg/kg oral once a day

B1: SodA2: variant Mn-SOD of Bacillus amyloliquefaciens GF423 sodA, Asn73 and Asn136 replaced with Asp, SEQ ID NO: 4; given orally shellac-coated, mixed with dextrin (protein, listed as Bacillus amyloliquefaciens)
chain: MAYKLPELPYAYDALEPHIDKETMTIHHTKHHNTYVTNLNKAIEGSALAEKSVDELVADLNAVPEDIRTAVRDDGGGHANHSLFWTLLSPNGGGEPTGELAEEIKSTFGSFDQFKEKFAAAAAGRFGSGWAWLVVDDGKLEITSTPNQDSPLSEGKTPVLGLDVWEHAYYLNYQNRRPDYISAFWNVVNWDEVARLYSEAK
modifications: shellac coating; dextrin mixture
B1 was tested, and the “proportion of CD4+IFN-γ+T cells” value [1, 8] was 21.00±0.63%, the “proportion of CD4+IFN-γ+T cells” value [1, 9] was 22.87±2.47% and the “proportion of CD4+IFN-γ+T cells” value [1, 10] was 25.83±0.27%. The “proportion of CD4+IFN-γ+T cells as compared with the EDE and vehicle groups” value [1, 11] was “significant decrease”, the “proportion of CD4+IFN-γ+T cells as compared with the 0.05% CsA group” value ([1]; cornea, 2.5 mg/kg oral) was “significantly lower” and the “proportion of CD4+IFN-γ+T cells” value [1, 12] was 21.18±0.15%. For the same molecule, the “proportion of CD4+IFN-γ+T cells” value [1, 13] was 23.87±0.17%, the “proportion of CD4+IFN-γ+T cells” value [1, 14] was 30.24±1.33% and the “MDA efficacy as compared with 0.05% CsA” value ([2]; conjunctiva) was “superior”. For the same molecule, the “MDA efficacy as compared with 0.05% CsA” value ([2]; cornea, lacrimal gland) was “similar”, the “MDA concentration, Conjunctiva” value [2, 8] was 21.5 ± 9.26 pmol/mL and the “MDA concentration, Conjunctiva” value [2, 9] was 19.0 ± 7.17 pmol/mL. For the same molecule, the “MDA concentration, Conjunctiva” value [2, 10] was 16.3 ± 9.12 pmol/mL, the “MDA concentration as compared with the EDE and vehicle groups” value ([2]; cornea, conjunctiva and lacrimal gland, CsA and oral SodA2 groups) was “decreased” and the “MDA concentration, Cornea” value [2, 12] was 22.7 ± 13.8 pmol/mL. For the same molecule, the “MDA concentration, Cornea” value [2, 13] was 20.2 ± 14.0 pmol/mL, the “MDA concentration, Cornea” value [2, 14] was 18.5 ± 10.6 pmol/mL and the “MDA concentration, Lacrimal gland” value [2, 15] was 22.6 ± 7.72 pmol/mL. The “MDA concentration, Lacrimal gland” value [2, 16] was 18.8 ± 11.6 pmol/mL, the “MDA concentration, Lacrimal gland” value [2, 17] was 22.5 ± 11.4 pmol/mL and the “tear volume as compared with the 0.05% CsA group” value ([3]; 5 mg/kg oral) was “more significant increase”. It also gave a tear volume ([3]; before drug administration, 2.5 mg/kg oral group) of 0.024 ± 0.003 µL, a tear volume ([3]; before drug administration, 5 mg/kg oral group) of 0.022 ± 0.004 µL and a tear volume ([3]; before drug administration, 10 mg/kg oral group) of 0.023 ± 0.004 µL. The tear volume ([3]; day 5 of administration, 2.5 mg/kg oral once a day) was 0.026 ± 0.005 µL, the tear volume ([3]; day 5 of administration, 5 mg/kg oral once a day) was 0.026 ± 0.005 µL and the tear volume ([3]; day 5 of administration, 10 mg/kg oral once a day) was 0.026 ± 0.005 µL. It also gave a tear volume ([3]; day 10 of administration, 2.5 mg/kg oral once a day) of 0.027 ± 0.005 µL, a tear volume ([3]; day 10 of administration, 5 mg/kg oral once a day) of 0.03 ± 0.005 µL and a tear volume ([3]; day 10 of administration, 10 mg/kg oral once a day) of 0.028 ± 0.004 µL. For the same molecule, the “tear volume as compared with the EDE and vehicle groups” value ([3]; days 5 and 10, 0.05% CsA eye drop, SodA2 2.5, 5 and 10 mg/kg oral) was “significant increase”, the IFN-γ [4, 8] was 21.27 ± 17.49 pg/mL and the IL-1β [4, 8] was 21.5 ± 9.26 pg/mL. The TNF-α [4, 8] was 22.6 ± 7.72 pg/mL, the IFN-γ [4, 9] was 18.28 ± 11.75 pg/mL and the IL-1β [4, 9] was 19.0 ± 7.17 pg/mL. For the same molecule, the TNF-α [4, 9] was 18.8 ± 11.6 pg/mL, the IFN-γ [4, 10] was 15.53 ± 11.43 pg/mL and the IL-1β [4, 10] was 16.3 ± 9.12 pg/mL. For the same molecule, the TNF-α [4, 10] was 22.5 ± 11.4 pg/mL, the “concentrations of IFN-γ, IL-1β, and TNF-α as compared with the EDE and vehicle groups” value [4, 11] was “tendency of decreased concentrations” and the IFN-γ [4, 12] was 10.77 ± 8.30 pg/mL. It also gave an IL-1β [4, 12] of 15.45 ± 8.93 pg/mL, a TNF-α [4, 12] of 22.6 ± 7.72 pg/mL and an IFN-γ [4, 13] of 9.80 ± 6.11 pg/mL. For the same molecule, the IL-1β [4, 13] was 13.17 ± 2.26 pg/mL, the TNF-α [4, 13] was 18.8 ± 11.6 pg/mL and the IFN-γ [4, 14] was 7.89 ± 7.90 pg/mL. For the same molecule, the IL-1β [4, 14] was 8.69 ± 4.18 pg/mL, the TNF-α [4, 14] was 22.5 ± 11.4 pg/mL and the “inflammatory cytokines as compared with CsA” value ([4]; oral, all doses) was “tended to decrease inflammatory cytokines more than CsA”. For the same molecule, the “number of goblet cells in the conjunctiva” value ([5]; 2.5 mg/kg oral once a day) was 27.9±6.9 cells/100 μm, the “number of goblet cells as compared with the 0.05% CsA group” value ([5]; 5 mg/kg oral) was “more significant increase” and the “number of goblet cells in the conjunctiva” value ([5]; 5 mg/kg oral once a day) was 35.8±10.2 cells/100 μm. For the same molecule, the “number of goblet cells in the conjunctiva” value ([5]; 10 mg/kg oral once a day) was 32.2±3.9 cells/100 μm, the “number of goblet cells in the conjunctiva, change in treatment groups” value ([5]; all treatment groups: 0.05% CsA, SodA2 2.5, 5 and 10 mg/kg oral) was “significant increase” and the “number of necrotic cells in the cornea” value ([6]; 2.5 mg/kg oral once a day) was 6.2±1.1 cells/100 μm. For the same molecule, the “number of necrotic cells in the cornea” value ([6]; 5 mg/kg oral once a day) was 4.0±1.3 cells/100 μm, the “number of necrotic cells in the cornea” value ([6]; 10 mg/kg oral once a day) was 4.6±1.3 cells/100 μm and the “number of dead cells in the cornea as compared with the EDE and vehicle groups” value ([6]; groups treated with CsA and oral SodA2) was “significantly decreased”. For the same molecule, the “amount of reactive oxygen species generated” value (shortened to “amount”) [7, 8] was 55.13±7.41%, the “amount” value [7, 9] was 57.63±8.16% and the “amount” value [7, 10] was 53.29±1.19%. For the same molecule, the “effect of decreasing generation of reactive oxygen species as compared with the CsA group” value ([7]; cornea, 2.5 mg/kg oral) was “better effect”, the “amount” value [7, 12] was 33.57±26.51% and the “amount” value [7, 13] was 54.53±13.53%. The “amount” value [7, 14] was 57.38±23.43%, the “amount” value [7, 15] was 59.05±10.77% and the “amount” value [7, 16] was 56.03±6.37%. For the same molecule, the “amount” value [7, 17] was 49.92±4.19%.
